What was measured:
[1] = biological target: Cx45 6E (stably expressed in MDCK cells) (not stated (human or mouse cDNA cloned)) (UniProt P28229); experiment: co-IP
[2] = biological target: Cx45 CT (UniProt P36383); conditions: cited from earlier work
[3] = biological target: Cx45CT WT (Lyn-HA-Cx45CT-mVenusN and Lyn-Myc-Cx45CT-mVenusC) (not stated (human or mouse cDNA cloned)); experiment: split reporter

UniProt P28229, sequence (P28229 whole entry L335E/L338E/L349E/I353E/Y356E): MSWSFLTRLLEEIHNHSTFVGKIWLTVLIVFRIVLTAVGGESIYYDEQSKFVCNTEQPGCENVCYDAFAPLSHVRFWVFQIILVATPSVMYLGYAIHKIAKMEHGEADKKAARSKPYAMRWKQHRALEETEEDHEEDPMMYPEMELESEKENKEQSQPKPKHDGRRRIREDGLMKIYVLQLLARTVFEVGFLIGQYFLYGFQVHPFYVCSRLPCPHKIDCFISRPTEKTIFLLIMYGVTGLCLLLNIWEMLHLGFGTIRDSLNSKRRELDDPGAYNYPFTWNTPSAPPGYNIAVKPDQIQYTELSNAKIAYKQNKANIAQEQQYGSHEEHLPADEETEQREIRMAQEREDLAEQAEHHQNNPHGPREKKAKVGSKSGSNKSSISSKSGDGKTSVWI

developmentally regulated brain protein (Drebrin) (natural protein)
fold increase of the co-immunoprecipitated amount relative to Cx45 WT [1]: 2 fold

β-tubulin (natural protein)
fold decrease of the co-immunoprecipitated amount relative to Cx45 WT [1]: 3 fold

neural precursor cell expressed developmentally down-regulated protein 4 (Nedd4) (enzyme)
fold decrease of the co-immunoprecipitated amount relative to Cx45 WT [1]: 2 fold

Cx45 CT (from UniProt P36383)
Kd [2]: 100 nM

Cx45CT WT (Lyn-HA-Cx45CT-mVenusN and Lyn-Myc-Cx45CT-mVenusC) (domain or fragment)
fold mVenus signal at the plasma membrane (normalized to Myc) over Cx45CT 6E [3]: 2.5 fold

Reference: paper PMC5600700
